Experimental data published in US20220267427A1 (SYSMEX, published 2022).
Where no end group is shown, it is not given here. The star is where a group is joined. Biotin = O=C1N[C@H]2[C@H](CS[C@H]2CCCCC(=O)*)N1

T1: fCK18 in apoptosis-induced HepG2 cell culture supernatant (human, UniProt P05783 239-397)
T1 construct: Natural CK18 fragment from the culture supernatant of apoptosis-induced HepG2 cells (band around 18 KDa); also called fCK18 in apoptosis-inducing cells
T1 sequence: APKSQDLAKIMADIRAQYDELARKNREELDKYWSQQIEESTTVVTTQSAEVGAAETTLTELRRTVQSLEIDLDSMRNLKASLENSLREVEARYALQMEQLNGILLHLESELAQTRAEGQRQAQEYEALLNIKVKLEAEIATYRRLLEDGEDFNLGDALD

T2: rfCK18 (239-396) (human, UniProt P05783 239-396)
T2 construct: Bought (Cloud-Clone-Corp.); captured through an anti-GST or penta HIS antibody, the tag is not described
T2 sequence: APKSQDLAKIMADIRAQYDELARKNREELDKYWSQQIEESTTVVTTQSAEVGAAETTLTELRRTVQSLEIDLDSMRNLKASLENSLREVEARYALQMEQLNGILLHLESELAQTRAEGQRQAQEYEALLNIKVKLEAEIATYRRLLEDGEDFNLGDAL

T3: Peptide 20 (human)
T3 peptide: Biotin-ILLHLESELAQTRAEGQR

T4: Peptide 22 (human)
T4 peptide: Biotin-RAEGQRQAQEYEALLNIK

T5: Peptide 24 (human)
T5 peptide: Biotin-ALLNIKVKLEAEIATYRR

T6: Peptide 25 (human)
T6 peptide: Biotin-VKLEAEIATYRRLLEDGE

T7: Peptide 26 (human)
T7 peptide: Biotin-IATYRRLLEDGEDFNLGD

T8: rfCK18 (127-430) (human, UniProt P05783 127-430)
T8 construct: Bought (Proteintech Inc.); captured through an anti-GST or penta HIS antibody, the tag is not described
T8 sequence: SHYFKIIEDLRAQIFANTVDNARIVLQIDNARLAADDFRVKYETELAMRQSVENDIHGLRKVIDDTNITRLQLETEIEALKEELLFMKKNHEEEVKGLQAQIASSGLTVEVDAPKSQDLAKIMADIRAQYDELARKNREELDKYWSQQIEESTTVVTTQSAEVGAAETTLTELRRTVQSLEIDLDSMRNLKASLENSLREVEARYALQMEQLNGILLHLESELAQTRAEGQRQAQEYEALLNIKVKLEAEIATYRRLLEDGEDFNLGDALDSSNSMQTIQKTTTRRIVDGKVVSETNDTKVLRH

B1: K18-624 antibody (antibody, V domains shown)
VH: DVQLVESGGGLVQPGGSRKLSCAASGFTFSSFGMHWVRQAPEKGLEWVAYISSGSTTIYYADTVKGRFTISRDNPKNTLFLQMTSLRSEDTAMYYCARRGMITTGAWFAYWGQGTLVTVSA
VL: DILLTQSPAILSVSPGERVSFSCRASQRIGTSIHWYQQRTNGSPRLLIKYASESISGIPSRFSGSGSGTDFTLSINSVESEDIADYYCQQSYIWPFTFGSGTKLEIK
notes: Mouse monoclonal antibody from a hybridoma (Balb/C mouse immunised with Peptide 1-KLH)
B2: K18-328 antibody (antibody, V domains shown)
VH: QVHLQQSAAELARPGASVKMSCKASGYTFTNYTIHWIKQRPGQGLEWIGYINPSSGYTDYNQNFKDKTTLTADKSSTTVYMQLSSLTSEDSAVYYCARQIPFAYWGQGTLVTVSA
VL: not shown
notes: Mouse monoclonal antibody from a hybridoma (immunogen full length rCK18)

Experiments:
[1] = target: T1, fCK18 in apoptosis-induced HepG2 cell …; test: plate ELISA with K18-624 magnetic microbeads, K18-328Fab-ALP detector; fCK18 0.28 ng/mL
Experimental: (§1) Measurement samples of 3-fold dilution series (3-fold to 6561-fold dilution) were prepared from the apoptosis-induced HepG2 cell culture supernatant with a diluent (TBS, pH 7.5, 2% BSA), and fCK18 was measured. […] Based on the prepared calibration curve, fCK18 in the measurement sample was measured.
(§2) This solution was added to an ELISA plate at 25 μL/well, then each measurement sample was added at 25 μL/well, and the plate was incubated (1500 rpm, RT, 20 min). […] (3) After washing the plate, the HISCL (registered trademark) R4 reagent was added thereto at 50 μL/well, and then the mixture was stirred (1500 rpm, RT, 1 min). Thereafter, the HISCL (registered trademark) R5 reagent was added at 100 μL/well, and then the mixture was stirred (1000 rpm, RT, 10 sec). (4) Luminescence intensity was measured with a plate reader.

[2] = target: T1, fCK18 in apoptosis-induced HepG2 cell …; test: plate ELISA with K18-624 magnetic microbeads, K18-328Fab-ALP detector; fCK18 6.79 ng/mL
Experimental: as §1, §2

[3] = target: T1, fCK18 in apoptosis-induced HepG2 cell …; test: plate ELISA with K18-624 magnetic microbeads, K18-328Fab-ALP detector; fCK18 60.73 ng/mL
Experimental: as §1, §2

[4] = target: T1, fCK18 in apoptosis-induced HepG2 cell …; test: HISCL sandwich immunoassay; K18-624 magnetic microbeads capture, K18-328Fab-ALP detector; fCK18 20.27 ng/mL
[5] = target: T1, fCK18 in apoptosis-induced HepG2 cell …; test: HISCL sandwich immunoassay; K18-624 magnetic microbeads capture, K18-328Fab-ALP detector; fCK18 182.28 ng/mL
[6] = target: T2, rfCK18 (239-396); test: solid phase ELISA; antigen (0.3 ug/mL) captured by anti-GST or penta HIS antibody on plate, antibody 5 to 10 ng/mL
Experimental: (§3) (1) An ANTI GST antibody or a penta HIS antibody was added to an ELISA plat at 2.5 μg/mL and 50 μL/well, and the plate was allowed to stand at 4° C. overnight to immobilize the antibody. Thereafter, the plate was washed three times with PBST, and Buffer I′ (10 mM NaH₂PO₄.2H₂O, 149.7 mM NaCl, 2.5 mM EDTA 2Na, 0.10% BSA, pH 7.0) was added thereto at 200 μL/well to prepare a plate stored at 4° C. overnight. […] (3) The plate was washed three times with PBST, and 50 μL each of each antigen diluent was added thereto, followed by shaking for 45 minutes. […] (6) The plate was washed three times with PBST, and 15000-fold diluted Peroxidase-conjugated Affinipure F(ab)′2 Fragment Goat Anti-Mouse IgG (H+L) (Jackson) was added thereto at 50 μL/well, followed by shaking for 45 minutes. (7) The plate was washed three times with PBST, TMB Mix (1-step Ultra TMB-ELISA (Thermo Scientific):3% H₂O₂: Phosphate-Citrate buffer (Sigma)=15:0.15:14.85) was added thereto at 100 μL/well, and the mixture was reacted at room temperature for 10 minutes. Thereafter, 1 M H₂SO₄ was added thereto at 100 μL/well to stop the reaction. (8) Absorbance of the reaction solution at 450 nm was measured with a plate reader.

[7] = target: T3, Peptide 20; test: solid phase ELISA; biotinylated peptide on plate, antibody 2 ug/ml
[8] = target: T4, Peptide 22; test: as above
[9] = target: T5, Peptide 24; test: as above
[10] = target: T6, Peptide 25; test: as above
[11] = target: T7, Peptide 26; test: as above
[12] = target: T8, rfCK18 (127-430); test: solid phase ELISA; antigen (0.3 ug/mL) captured by anti-GST or penta HIS antibody on plate, antibody 5 to 10 ng/mL
Experimental: as §3

| Binder | S/N ratio [1] | S/N ratio [2] | S/N ratio [3] | S/N ratio [4] | S/N ratio [5] | Abs450 [6] | Abs450 [7] | Abs450 [8] | Abs450 [9] | Abs450 [10] | Abs450 [11] | Abs450 [12] |
| --- | --- | --- | --- | --- | --- | --- | --- | --- | --- | --- | --- | --- |
| B1 | 5.9 | 158 | 1850 | 226 | 2070 | 0.017 |  |  |  |  |  |  |
| B2 |  |  |  |  |  | 0.525 | 0 | 0 | 0.01 | 0.01 | 0.01 | 0.89 |
